Results taken from the supplement of paper PMC10567573.

B1: TEKT4 (parent)
chain: SEVEELNMSLTALREKLLEAEQSL
B2: CAMK2A (parent)
chain: CIQQILEAVLHCHQMGVVHRDLKP

Variants of: B1
Assay: protein stability index of a GFP-peptide fusion (GPS, HEK-293T) (PSI 1-6); higher = more stable
Settings: c terminus: a fixed tail appended
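Further: lentivirally expressed fusions sorted by FACS into six bins by GFP to DsRed ratio, PSI derived from sequencing read proportions per bin multiplied by bin number.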

Variant	protein stability index
SEVEELNMCLTALREKLLEAEQSL [S9C]	2.6
SEVEELNMFLTALREKLLEAEQSL [S9F]	2.28
SEVEEINMSLTALREKLLEAEQSL [L6I]	2.76
SEVEELNMSATALREKLLEAEQSL [L10A]	3.75
SEVEELNMSLKALREKLLEAEQSL [T11K]	3.15
SEVEELNMSLQALREKLLEAEQSL [T11Q]	3.65
SEVEELNMSLTSLREKLLEAEQSL [A12S]	2.46
SEVEELNMSLTTLREKLLEAEQSL [A12T]	2.3
SEVEELNMSLTILREKLLEAEQSL [A12I]	2.36
AEVEELNMSLTALREKLLEAEQSL [S1A]	3.43
SEVEELNMSLTALREKLLEAEQLL [S23L]	2.37
SEVEELNMSLTALEEKLLEAEQSL [R14E]	4.63
SEVESLNMSLTALREKLLEAEQSL [E5S]	3.06
SEVEDLNMSLTALREKLLEAEQSL [E5D]	2.63
SEVEELNMSLTALREKLLEAEQSF [L24F]	4.51
SEVEELNMSLTALREKLLEAEQSP [L24P]	4.99
SEVEELNMSLTALREKLLEAEQSS [L24S]	4.63
SEVEELNMSLTALREKLLAAEQSL [E19A]	2.69
SEVEELNMSLTAMREKLLEAEQSL [L13M]	3.32
SEVEELNMSLTAYREKLLEAEQSL [L13Y]	4.34

Variant	protein stability index
SEVEELNMSLTALRGKLLEAEQSL [E15G]	3.04
SEVEELNMSLTALRCKLLEAEQSL [E15C]	2.24
SEVEELNMSLTALREKLLEAEPSL [Q22P]	3.99
SEVGELNMSLTALREKLLEAEQSL [E4G]	2.89
SEVSELNMSLTALREKLLEAEQSL [E4S]	2.71
SEVEELNMSLTALREMLLEAEQSL [K16M]	2.26
SEVEELNMSLTALRENLLEAEQSL [K16N]	1.72
SEVEELNMSLTALREKLCEAEQSL [L18C]	4.07
SEVEELNMSLTALREKLDEAEQSL [L18D]	5.37
SEVEELNMSLTALREKLYEAEQSL [L18Y]	3.92
SEVEELNMSLTALREKLFEAEQSL [L18F]	3.32
SEVEELNMSLTALREKLLEARQSL [E21R]	3.26
SEVEELNMSLTALREKLLEASQSL [E21S]	2.94
SEVEELNDSLTALREKLLEAEQSL [M8D]	3.5
SEVEELNHSLTALREKLLEAEQSL [M8H]	2.96
SEVEELNMSLTALREKLLEHEQSL [A20H]	3.93
SEVEELNMSLTALREKKLEAEQSL [L17K]	5.36
SEVEELNMSLTALREKDLEAEQSL [L17D]	5.26
SEVEELNMSLTALREKRLEAEQSL [L17R]	3.69

Variants of: B2
Assay: as above
Settings: c terminus: a fixed tail appended

Variant	protein stability index
CIQQILEAVLHCHQMGVVHRDAKP [L22A]	2.87
CIQQILEAVLHCHQMGVVHRDNKP [L22N]	2.03
CIQQILEAVLHCHQMGVVHRDYKP [L22Y]	1.95
CIQQILEAVLHCHQMGVVHRDSKP [L22S]	2.34
CIQQILEAVLHCHQMGVVHRDCKP [L22C]	3.02
CIQQILEAVLHCHQMGVVHRDQKP [L22Q]	1.62
CIQQILEAVLHCHQMGVVHRDGKP [L22G]	2.03
CIQQILRAVLHCHQMGVVHRDLKP [E7R]	2.81
CIQQILKAVLHCHQMGVVHRDLKP [E7K]	2.25
CIQQILQAVLHCHQMGVVHRDLKP [E7Q]	2.55
CIQQILWAVLHCHQMGVVHRDLKP [E7W]	2.78
CIQQILSAVLHCHQMGVVHRDLKP [E7S]	2.57
CIQQWLEAVLHCHQMGVVHRDLKP [I5W]	2.01
CIQQFLEAVLHCHQMGVVHRDLKP [I5F]	2.79
CIQQRLEAVLHCHQMGVVHRDLKP [I5R]	2.2
CIQQHLEAVLHCHQMGVVHRDLKP [I5H]	2.44
CIQQSLEAVLHCHQMGVVHRDLKP [I5S]	1.69
CIQQALEAVLHCHQMGVVHRDLKP [I5A]	4.67
CIQQILEAVTHCHQMGVVHRDLKP [L10T]	2.11
CIQQILEAVAHCHQMGVVHRDLKP [L10A]	1.35
CIQQILEAVDHCHQMGVVHRDLKP [L10D]	1.95
CIQQILEAVFHCHQMGVVHRDLKP [L10F]	2.72
CIQQILEAVKHCHQMGVVHRDLKP [L10K]	1.9
CIQQILEAVPHCHQMGVVHRDLKP [L10P]	1.66
CIQQILEAVQHCHQMGVVHRDLKP [L10Q]	2.19

Variant	protein stability index
CIQQILEAVEHCHQMGVVHRDLKP [L10E]	1.53
CIQQILEAVLHCHAMGVVHRDLKP [Q14A]	2.29
CIQQILEAVLHCHLMGVVHRDLKP [Q14L]	3.6
CIQQILEAVLHCHHMGVVHRDLKP [Q14H]	2.38
CIQQILEAVLHCHEMGVVHRDLKP [Q14E]	3.49
CITQILEAVLHCHQMGVVHRDLKP [Q3T]	3.42
CIGQILEAVLHCHQMGVVHRDLKP [Q3G]	3.91
CIYQILEAVLHCHQMGVVHRDLKP [Q3Y]	3.67
CIDQILEAVLHCHQMGVVHRDLKP [Q3D]	3.17
CIHQILEAVLHCHQMGVVHRDLKP [Q3H]	3.11
CIIQILEAVLHCHQMGVVHRDLKP [Q3I]	2.81
CIQQILEAVLHCHQMGVVHRDLKS [P24S]	2.12
CIQQILEAVLHCHQMGVVHRDLKQ [P24Q]	1.86
CIQQILEAVLHCHQMGVVHRDLKI [P24I]	3.7
CIQQILEAVLHCHQMGVVHRDLKR [P24R]	2.44
CIQQILEAVLHCHQMGVVHRDLKM [P24M]	3.07
CIQQILEAVLHCHQMGVVHRDLKF [P24F]	2.58
CIQQILEAVLHCHQMGVVHWDLKP [R20W]	3.1
CIQQILEAVLHCHQMGVVHTDLKP [R20T]	3.37
CIQQILEAVLHCHQMGVVHNDLKP [R20N]	1.52
CIQQILEAVLHCHQMGVVHDDLKP [R20D]	2.72
CIQQILEAVLHCHQMGVVHCDLKP [R20C]	2.37
CIQQILEAVLSCHQMGVVHRDLKP [H11S]	2.86
CIQQILEAVLTCHQMGVVHRDLKP [H11T]	2.39
CIQQILEAVLVCHQMGVVHRDLKP [H11V]	1.53

Variant	protein stability index
CIQQILEAVLMCHQMGVVHRDLKP [H11M]	4.07
CIQQILEAVLFCHQMGVVHRDLKP [H11F]	3.5
CIQQILEAVLECHQMGVVHRDLKP [H11E]	2.91
CIQQILEAVLCCHQMGVVHRDLKP [H11C]	2.39
CIQQILEAVLNCHQMGVVHRDLKP [H11N]	2.4
CIQQILEAVLHCHQMGVVGRDLKP [H19G]	3.33
CIQQILEAVLHCHQMGVVRRDLKP [H19R]	2.92
CIQQILEAVLHCHQMGVVKRDLKP [H19K]	2.34
CIQQILEAVLHCHQMGVVWRDLKP [H19W]	3.38
CIQQILEAVLHCHQMGVVLRDLKP [H19L]	1.9
CIQQILEAVLHCHQMGVVDRDLKP [H19D]	2.72
CIQQILEAVLHCHQMGVVSRDLKP [H19S]	2.53
CIQQILEAVLHCHQMGVVFRDLKP [H19F]	3.5
CIQQILECVLHCHQMGVVHRDLKP [A8C]	2.57
CIQQILEMVLHCHQMGVVHRDLKP [A8M]	3.63
CIQQILEGVLHCHQMGVVHRDLKP [A8G]	3.6
LIQQILEAVLHCHQMGVVHRDLKP [C1L]	3.19
FIQQILEAVLHCHQMGVVHRDLKP [C1F]	3.55
TIQQILEAVLHCHQMGVVHRDLKP [C1T]	2.82
DIQQILEAVLHCHQMGVVHRDLKP [C1D]	2.12
CIQQILEAVLHCKQMGVVHRDLKP [H13K]	1.73
CIQQILEAVLHCGQMGVVHRDLKP [H13G]	3.66
CIQQILEAVLHCDQMGVVHRDLKP [H13D]	2.57
CIQQILEAVLHCRQMGVVHRDLKP [H13R]	1.55
CIQQILEAVLHCFQMGVVHRDLKP [H13F]	1.28

Variant	protein stability index
CIQQIYEAVLHCHQMGVVHRDLKP [L6Y]	2.13
CIQQIVEAVLHCHQMGVVHRDLKP [L6V]	2.88
CIQQIIEAVLHCHQMGVVHRDLKP [L6I]	2.64
CIQQIAEAVLHCHQMGVVHRDLKP [L6A]	1.4
CIQQIMEAVLHCHQMGVVHRDLKP [L6M]	2.75
CIQQIREAVLHCHQMGVVHRDLKP [L6R]	1.97
CIQQINEAVLHCHQMGVVHRDLKP [L6N]	1.98
CIQQIDEAVLHCHQMGVVHRDLKP [L6D]	2.93
CIQQIEEAVLHCHQMGVVHRDLKP [L6E]	2.44
CIQQIWEAVLHCHQMGVVHRDLKP [L6W]	1.87
CIQQILEAVLHCHQQGVVHRDLKP [M15Q]	1.22
CIQQILEAVLHCHQKGVVHRDLKP [M15K]	2.42
CIQQILEAVLHCHQYGVVHRDLKP [M15Y]	2.85
CIQQILEAVLHCHQEGVVHRDLKP [M15E]	2.68
CIQQILEAVLHCHQMGVVHRDLEP [K23E]	2.61
CIQQILEAVLHCHQMGVVHRDLCP [K23C]	3.94
CIQQILEAVLHCHQMGVVHRDLNP [K23N]	3.36
CIQQILEAVLHCHQMGVVHRDLYP [K23Y]	3.71
CIQQILEAVLHCHQMGVVHRDLVP [K23V]	1.76
CIQQILEAVLHTHQMGVVHRDLKP [C12T]	2.74
CIQQILEAVLHYHQMGVVHRDLKP [C12Y]	3.8
CIQQILEAVLHIHQMGVVHRDLKP [C12I]	2.66
CIQQILEAVLHDHQMGVVHRDLKP [C12D]	1.54
CIQQILEAVLHMHQMGVVHRDLKP [C12M]	2.79
CIQQILEAVLHLHQMGVVHRDLKP [C12L]	3.33

Variant	protein stability index
CIQQILEAVLHGHQMGVVHRDLKP [C12G]	1.18
CIQQILEAVLHCHQMGVVHRNLKP [D21N]	4.66
CIQQILEAVLHCHQMGVVHRPLKP [D21P]	2.07
CIQQILEAVLHCHQMGVVHRLLKP [D21L]	3.01
CIQQILEAVLHCHQMGVVHRGLKP [D21G]	2.28
CIQQILEAVLHCHQMGVVHRFLKP [D21F]	2.97
CIQQILEAVLHCHQMGVVHRILKP [D21I]	3.1
CIQQILEAVLHCHQMGVVHRRLKP [D21R]	2.75
CIQQILEAVLHCHQMGVVHRQLKP [D21Q]	2.22
CIQQILEAVLHCHQMGVVHRCLKP [D21C]	2.86
CIQQILEAPLHCHQMGVVHRDLKP [V9P]	1.26
CIQQILEAKLHCHQMGVVHRDLKP [V9K]	1.72
CIQQILEANLHCHQMGVVHRDLKP [V9N]	1.96
CIQQILEAMLHCHQMGVVHRDLKP [V9M]	2.92
CIQQILEADLHCHQMGVVHRDLKP [V9D]	1.83
CIQQILEAWLHCHQMGVVHRDLKP [V9W]	2.45
CIQQILEACLHCHQMGVVHRDLKP [V9C]	2.82
CIQQILEAALHCHQMGVVHRDLKP [V9A]	1.86
CIQQILEAVLHCHQMGYVHRDLKP [V17Y]	3.53
CIQQILEAVLHCHQMGCVHRDLKP [V17C]	2.21
CIQQILEAVLHCHQMGPVHRDLKP [V17P]	2.65
CIQQILEAVLHCHQMGEVHRDLKP [V17E]	2.01
CIQQILEAVLHCHQMGMVHRDLKP [V17M]	2.44
CIQQILEAVLHCHQMGRVHRDLKP [V17R]	3.99
CIQLILEAVLHCHQMGVVHRDLKP [Q4L]	2.55

Variant	protein stability index
CIQGILEAVLHCHQMGVVHRDLKP [Q4G]	5.02
CIQYILEAVLHCHQMGVVHRDLKP [Q4Y]	2.07
CIQKILEAVLHCHQMGVVHRDLKP [Q4K]	1.93
CIQQILEAVLHCHQMGVDHRDLKP [V18D]	2.78
CIQQILEAVLHCHQMGVGHRDLKP [V18G]	2.31
CIQQILEAVLHCHQMGVKHRDLKP [V18K]	2.97
CIQQILEAVLHCHQMEVVHRDLKP [G16E]	3.1
CIQQILEAVLHCHQMDVVHRDLKP [G16D]	2.41
CIQQILEAVLHCHQMYVVHRDLKP [G16Y]	1.91
CIQQILEAVLHCHQMIVVHRDLKP [G16I]	2.24
CIQQILEAVLHCHQMMVVHRDLKP [G16M]	3.07
CIQQILEAVLHCHQMNVVHRDLKP [G16N]	3.04
CDQQILEAVLHCHQMGVVHRDLKP [I2D]	2.09
CVQQILEAVLHCHQMGVVHRDLKP [I2V]	2.74
CHQQILEAVLHCHQMGVVHRDLKP [I2H]	1.68
CSQQILEAVLHCHQMGVVHRDLKP [I2S]	1.56
CCQQILEAVLHCHQMGVVHRDLKP [I2C]	3.15
CPQQILEAVLHCHQMGVVHRDLKP [I2P]	2.07
CKQQILEAVLHCHQMGVVHRDLKP [I2K]	1.22
CEQQILEAVLHCHQMGVVHRDLKP [I2E]	1.78
CQQQILEAVLHCHQMGVVHRDLKP [I2Q]	1.72
CRQQILEAVLHCHQMGVVHRDLKP [I2R]	2.21
CNQQILEAVLHCHQMGVVHRDLKP [I2N]	1.32
CTQQILEAVLHCHQMGVVHRDLKP [I2T]	1.79
